From the supplement of paper PMC11246515
± gives the standard deviation of the averaged measurements.

Assay: total protein half-life in vivo (active degradation + dilution); higher = more stable protein
[1] = E. coli NCM3722 delta-clpP delta-lon delta-hslV, growth: N-lim chemostat, doubling time 6 h
[2] = E. coli NCM3722 delta-clpP, growth: N-lim chemostat, doubling time 6 h
[3] = E. coli NCM3722 delta-smpB, growth: N-lim chemostat, doubling time 6 h
[4] = wild type E. coli NCM3722, growth: C-lim chemostat, doubling time 6 h
[5] = wild type E. coli NCM3722, growth: C-lim chemostat, doubling time 12 h
[6] = wild type E. coli NCM3722, growth: P-lim chemostat, doubling time 6 h
[7] = E. coli NCM3722 delta-hslV, growth: N-lim chemostat, doubling time 6 h
[8] = E. coli NCM3722 delta-lon, growth: N-lim chemostat, doubling time 6 h
[9] = wild type E. coli NCM3722, growth: C-lim chemostat, doubling time 3 h
[10] = wild type E. coli NCM3722, growth: N-lim chemostat, doubling time 6 h
[11] = wild type E. coli NCM3722, growth: N-lim chemostat, doubling time 12 h
[12] = wild type E. coli NCM3722, growth: P-lim chemostat, doubling time 12 h

Sequence	total protein half-life in vivo [1]	total protein half-life in vivo [2]	total protein half-life in vivo [3]	total protein half-life in vivo [4]	total protein half-life in vivo [5]	total protein half-life in vivo [6]	total protein half-life in vivo [7]	total protein half-life in vivo [8]	total protein half-life in vivo [9]	total protein half-life in vivo [10]	total protein half-life in vivo [11]	total protein half-life in vivo [12]
MHLLVHPNGSKYWRLQYRYEGKQKMLALGVYPEITLADARVRRDEARKLLANGVDPGDKKKNDKVEQSKARTFKEVAIEWHGTNKKWSEDHAHRVLKSLEDNLFAALGERNIAELKTRDLLAPIKAVEMSGRLEVAARLQQRTTAIMRYAVQSGLIDYNPAQEMAGAVASCNRQHRPALELKRIPELLTKIDSYTGRPLTRWAIELTLLIFIRSSELRFARWSEIDFEASIWTIPPEREPIPGVKHSHRGSKMRTTHLVPLSTQALAILKQIKQFYGAHDLIFIGDHDSHKPMSENTVNSALRVMGYDTKVEVCGHGFRTMACSSLVESGLWSRDAVERQMSHMARNSVRAAYIHKAEHLEERRLMLQWWADFLDVNRERFISPFEYAKINNPLKQ	5.06 ± 0.41 h	4.91 h	2.44 h	5.13 h	13.3 h	4.82 h	–	–	–	–	–	–
MHLRHLFSSRLRGSLLLGSLLVVSSFSTQAAEEMLRKAVGKGAYEMAYSQQENALWLATSQSRKLDKGGVVYRLDPVTLEVTQAIHNDLKPFGATINNTTQTLWFGNTVNSAVTAIDAKTGEVKGRLVLDDRKRTEEVRPLQPRELVADDATNTVYISGIGKESVIWVVDGGNIKLKTAIQNTGKMSTGLALDSEGKRLYTTNADGELITIDTADNKILSRKKLLDDGKEHFFINISLDTARQRAFITDSKAAEVLVVDTRNGNILAKVAAPESLAVLFNPARNEAYVTHRQAGKVSVIDAKSYKVVKTFDTPTHPNSLALSADGKTLYVSVKQKSTKQQEATQPDDVIRIAL	5.6 ± 0.52 h	5.877 ± 0.042 h	5.53 ± 0.97 h	6.05 ± 0.6 h	12.2 ± 1.1 h	5.44 ± 0.17 h	5.99 ± 0.71 h	5.44 ± 0.31 h	3.14 ± 0.065 h	5.63 ± 0.093 h	11.5 ± 1.1 h	11.4 ± 0.18 h
MHPMLNIAVRAARKAGNLIAKNYETPDAVEASQKGSNDFVTNVDKAAEAVIIDTIRKSYPQHTIITEESGELEGTDQDVQWVIDPLDGTTNFIKRLPHFAVSIAVRIKGRTEVAVVYDPMRNELFTATRGQGAQLNGYRLRGSTARDLDGTILATGFPFKAKQYATTYINIVGKLFNECADFRRTGSAALDLAYVAAGRVDGFFEIGLRPWDFAAGELLVREAGGIVSDFTGGHNYMLTGNIVAGNPRVVKAMLANMRDELSDALKR [P0ADG4]	5.94 ± 0.37 h	6.49 ± 1.6 h	5.39 ± 0.47 h	6.17 ± 0.55 h	12 ± 0.71 h	6.063 ± 0.06 h	5.2 ± 0.23 h	–	3.01 ± 0.21 h	5.53 ± 0.19 h	10.2 ± 0.39 h	14 ± 1 h
MHSLQRKVLRTICPDQKGLIARITNICYKHELNIVQNNEFVDHRTGRFFMRTELEGIFNDSTLLADLDSALPEGSVRELNPAGRRRIVILVTKEAHCLGDLLMKANYGGLDVEIAAVIGNHDTLRSLVERFDIPFELVSHEGLTRNEHDQKMADAIDAYQPDYVVLAKYMRVLTPEFVARFPNKIINIHHSFLPAFIGARPYHQAYERGVKIIGATAHYVNDNLDEGPIIMQDVIHVDHTYTAEDMMRAGRDVEKNVLSRALYKVLAQRVFVYGNRTIIL	5.61 ± 0.48 h	5.19 ± 0.2 h	4.94 ± 0.19 h	6.27 ± 1.3 h	10.5 ± 0.78 h	5.77 ± 0.26 h	4.71 ± 0.23 h	5.71 ± 1.4 h	2.78 ± 0.4 h	4.8 ± 0.3 h	9.08 ± 0.9 h	12.6 ± 0.46 h
MHTSELLKHIYDINLSYLLLAQRLIVQDKASAMFRLGINEEMATTLAALTLPQMVKLAETNQLVCHFRFDSHQTITQLTQDSRVDDLQQIHTGIMLSTRLLNDVNQPEEALRKKRA [P0A8S9]	6.51 ± 0.47 h	–	–	–	–	–	–	–	0.799 h	–	–	–
MHVFDNNGIELKAECSIGEEDGVYGLILESWGPGDRNKDYNIALDYIIERLVDSGVSQVVVYLASSSVRKHMHSLDERKIHPGEYFTLIGNSPRDIRLKMCGYQAYFSRTGRKEIPSGNRTKRILINVPGIYSDSFWASIIRGELSELSQPTDDESLLNMRVSKLIKKTLSQPEGSRKPVEVERLQKVYVRDPMVKAWILQQSKGICENCGKNAPFYLNDGNPYLEVHHVIPLSSGGADTTDNCVALCPNCHRELHYSKNAKELIEMLYVNINRLQK	5.51 h	–	4.87 h	–	–	–	4.2 h	5.87 h	–	4.8 ± 0.71 h	8.5 ± 1.1 h	10.2 h
MHVLNILWVVFGIGLMLVLNLKFKINSMVALLVAALSVGMLAGMDLMSLLHTMKAGFGNTLGELAIIVVFGAVIGKLMVDSGAAHQIAHTLLARLGLRYVQLSVIIIGLIFGLAMFYEVAFIMLAPLVIVIAAEAKIPFLKLAIPAVAAATTAHSLFPPQPGPVALVNAYGADMGMVYIYGVLVTIPSVICAGLILPKFLGNLERPTPSFLKADQPVDMNNLPSFGVSILVPLIPAIIMISTTIANIWLVKDTPAWEVVNFIGSSPIAMFIAMVVAFVLFGTARGHDMQWVMNAFESAVKSIAMVILIIGAGGVLKQTIIDTGIGDTIGMLMSHGNISPYIMAWLITVLIRLATGQGVVSAMTAAGIISAAILDPATGQLVGVNPALLVLATAAGSNTLTHINDASFWLFKGYFDLSVKDTLKTWGLLELVNSVVGLIIVLIISMVA [P0AC94]	–	–	–	6.04 ± 0.1 h	13.5 h	–	–	–	2.92 ± 1.2 h	–	–	–
MIAELFTNNALNLVIIFGSCAALILMSFWFRRGNRKRKGFLFHAVQFLIYTIIISAVGSIINYVIENYKLKFITPGVIDFICTSLIAVILTIKLFLLINQFEKQQIKKGRDITSARIMSRIIKITIIVVLVLLYGEHFGMSLSGLLTFGGIGGLAVGMAGKDILSNFFSGIMLYFDRPFSIGDWIRSPDRNIEGTVAEIGWRITKITTFDNRPLYVPNSLFSSISVENPGRMTNRRITTTIGLRYEDAAKVGVIVEAVREMLKNHPAIDQRQTLLVYFNQFADSSLNIMVYCFTKTTVWAEWLAAQQDVYLKIIDIVQSHGADFAFPSQTLYMDNITPPEQGR [P0AEB5]	6.12 ± 0.49 h	6.41 ± 0.17 h	6.07 ± 0.36 h	6.34 ± 0.4 h	11.9 ± 0.12 h	5.86 ± 0.78 h	6.48 ± 0.5 h	6.71 ± 0.27 h	3.02 ± 0.1 h	6.02 ± 0.14 h	12.7 ± 1.4 h	–
MIARWFWREWRSPSLLIVWLALSLAVACVLALGNISDRMEKGLSQQSREFMAGDRALRSSREVPQAWLEEAQKRGLKVGKQLTFATMTFAGDTPQLANVKAVDDIYPMYGDLQTNPPGLKPQAGSVLLAPRLMALLNLKTGDTIDVGDATLRIAGEVIQEPDSGFNPFQMAPRLMMNLADVDKTGAVQPGSRVTWRYKFGGNENQLDGYEKWLLPQLKPEQRWYGLEQDEGALGRSMERSQQFLLLSALLTLLLAVAAVAVAMNHYCRSRYDLVAILKTLGAGRAQLRKLIVGQWLMVLTLSAVTGGAIGLLFENVLMVLLKPVLPAALPPASLWPWLWALGTMTVISLLVGLRPYRLLLATQPLRVLRNDVVANVWPLKFYLPIVSVVVVLLLAGLMGGSMLLWAVLAGAVVLALLCGVLGWMLLNVLRRMTLKSLPLRLAVSRLLRQPWSTLSQLSAFSLSFMLLALLLVLRGDLLDRWQQQLPPESPNYFLINIATEQVAPLKAFLAEHQIVPESFYPVVRARLTAINDKPTEGNEDEALNRELNLTWQNTRPDHNPIVAGNWPPKADEVSMEEGLAKRLNVALGDTVTFMGDTQEFRAKVTSLRKVDWESLRPNFYFIFPEGALDGQPQSWLTSFRWENGNGMLTQLNRQFPTISLLDIGAILKQVGQVLEQVSRALEVMVVLVTACGMLLLLAQVQVGMRQRHQELVVWRTLGAGKKLLRTTLWCEFAMLGFVSGLVAAIGAETALAVLQAKVFDFPWEPDWRLWIVLPCSGALLLSLFGGWLGARLVKGKALFRQFAG	6.27 ± 0.098 h	–	6.86 ± 0.47 h	6.92 ± 1.4 h	–	5.85 ± 0.5 h	6.06 ± 0.42 h	6.45 ± 0.35 h	3.48 ± 0.66 h	6.21 ± 1.2 h	13.3 ± 1.4 h	10.5 ± 0.91 h
MIDFGNFYSLIAKNHLSHWLETLPAQIANWQREQQHGLFKQWSNAVEFLPEIKPYRLDLLHSVTAESEEPLSAGQIKRIETLMRNLMPWRKGPFSLYGVNIDTEWRSDWKWDRVLPHLSDLTGRTILDVGCGSGYHMWRMIGAGAHLAVGIDPTQLFLCQFEAVRKLLGNDQRAHLLPLGIEQLPALKAFDTVFSMGVLYHRRSPLEHLWQLKDQLVNEGELVLETLVIDGDENTVLVPGDRYAQMRNVYFIPSALALKNWLKKCGFVDIRIADVSVTTTEEQRRTEWMVTESLADFLDPHDPGKTVEGYPAPKRAVLIARKP	5.27 ± 0.08 h	4.888 ± 0.034 h	5.36 ± 0.11 h	5.84 ± 0.0082 h	13.1 ± 3.1 h	5.89 ± 0.94 h	5.33 ± 0.13 h	5.97 ± 1.3 h	3.11 ± 0.086 h	5.59 h	11.6 ± 2.1 h	12.3 ± 0.86 h
MIDKSAFVHPTAIVEEGASIGANAHIGPFCIVGPHVEIGEGTVLKSHVVVNGHTKIGRDNEIYQFASIGEVNQDLKYAGEPTRVEIGDRNRIRESVTIHRGTVQGGGLTKVGSDNLLMINAHIAHDCTVGNRCILANNATLAGHVSVDDFAIIGGMTAVHQFCIIGAHVMVGGCSGVAQDVPPYVIAQGNHATPFGVNIEGLKRRGFSREAITAIRNAYKLIYRSGKTLDEVKPEIAELAETYPEVKAFTDFFARSTRGLIR [P0A722]	5.73 ± 0.15 h	5.26 ± 0.2 h	5.59 ± 0.7 h	5.79 ± 0.17 h	10.9 ± 0.052 h	5.95 ± 0.41 h	5.49 ± 0.17 h	5.48 ± 0.32 h	3.06 ± 0.068 h	5.52 ± 0.27 h	10.4 ± 0.94 h	12.5 ± 0.48 h
